Data on 1 substance can be found in article PMC6085827.

The experiment deals with S-tagged long RECK isoform (human) (UniProt O95980). Briefly: co-IP.
Chain of UniProt O95980 (O95980 23-942): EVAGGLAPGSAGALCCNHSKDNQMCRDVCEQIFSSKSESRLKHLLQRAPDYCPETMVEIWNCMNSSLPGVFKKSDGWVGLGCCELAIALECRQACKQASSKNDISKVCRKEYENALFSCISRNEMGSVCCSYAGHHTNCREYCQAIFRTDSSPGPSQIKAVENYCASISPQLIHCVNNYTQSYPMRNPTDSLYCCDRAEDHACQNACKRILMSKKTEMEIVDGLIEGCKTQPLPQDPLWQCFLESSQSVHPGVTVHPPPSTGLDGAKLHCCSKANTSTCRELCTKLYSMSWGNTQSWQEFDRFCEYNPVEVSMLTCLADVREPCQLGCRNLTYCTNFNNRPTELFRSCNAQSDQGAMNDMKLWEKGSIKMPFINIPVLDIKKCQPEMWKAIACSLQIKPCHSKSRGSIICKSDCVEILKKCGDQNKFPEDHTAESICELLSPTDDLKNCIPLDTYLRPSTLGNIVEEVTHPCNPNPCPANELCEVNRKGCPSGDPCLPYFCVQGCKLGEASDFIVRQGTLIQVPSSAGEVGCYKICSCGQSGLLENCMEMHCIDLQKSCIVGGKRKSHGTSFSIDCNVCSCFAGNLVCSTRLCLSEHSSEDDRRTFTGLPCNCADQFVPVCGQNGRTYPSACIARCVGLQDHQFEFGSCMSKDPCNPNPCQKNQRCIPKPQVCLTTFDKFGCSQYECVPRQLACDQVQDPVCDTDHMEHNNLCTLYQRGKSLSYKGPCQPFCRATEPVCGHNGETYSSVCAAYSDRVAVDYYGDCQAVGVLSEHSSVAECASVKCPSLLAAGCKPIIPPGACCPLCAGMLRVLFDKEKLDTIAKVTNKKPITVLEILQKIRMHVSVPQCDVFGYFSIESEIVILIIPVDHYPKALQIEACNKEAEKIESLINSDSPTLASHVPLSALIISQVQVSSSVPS

Substance “Flag-tagged short RECK isoform (natural protein)” yielded a percent reduction of MMP9 co-immunoprecipitated with long RECK of 88%.
